Experimental data reported in PMC8091981 (Genes & Development, 2021).

Biological target: T1, Spt6-YW-FLAG (Y255A, W257A) (S. cerevisiae, UniProt P23615 1-1451, Y255A | W257A)
T1 sequence (looked up): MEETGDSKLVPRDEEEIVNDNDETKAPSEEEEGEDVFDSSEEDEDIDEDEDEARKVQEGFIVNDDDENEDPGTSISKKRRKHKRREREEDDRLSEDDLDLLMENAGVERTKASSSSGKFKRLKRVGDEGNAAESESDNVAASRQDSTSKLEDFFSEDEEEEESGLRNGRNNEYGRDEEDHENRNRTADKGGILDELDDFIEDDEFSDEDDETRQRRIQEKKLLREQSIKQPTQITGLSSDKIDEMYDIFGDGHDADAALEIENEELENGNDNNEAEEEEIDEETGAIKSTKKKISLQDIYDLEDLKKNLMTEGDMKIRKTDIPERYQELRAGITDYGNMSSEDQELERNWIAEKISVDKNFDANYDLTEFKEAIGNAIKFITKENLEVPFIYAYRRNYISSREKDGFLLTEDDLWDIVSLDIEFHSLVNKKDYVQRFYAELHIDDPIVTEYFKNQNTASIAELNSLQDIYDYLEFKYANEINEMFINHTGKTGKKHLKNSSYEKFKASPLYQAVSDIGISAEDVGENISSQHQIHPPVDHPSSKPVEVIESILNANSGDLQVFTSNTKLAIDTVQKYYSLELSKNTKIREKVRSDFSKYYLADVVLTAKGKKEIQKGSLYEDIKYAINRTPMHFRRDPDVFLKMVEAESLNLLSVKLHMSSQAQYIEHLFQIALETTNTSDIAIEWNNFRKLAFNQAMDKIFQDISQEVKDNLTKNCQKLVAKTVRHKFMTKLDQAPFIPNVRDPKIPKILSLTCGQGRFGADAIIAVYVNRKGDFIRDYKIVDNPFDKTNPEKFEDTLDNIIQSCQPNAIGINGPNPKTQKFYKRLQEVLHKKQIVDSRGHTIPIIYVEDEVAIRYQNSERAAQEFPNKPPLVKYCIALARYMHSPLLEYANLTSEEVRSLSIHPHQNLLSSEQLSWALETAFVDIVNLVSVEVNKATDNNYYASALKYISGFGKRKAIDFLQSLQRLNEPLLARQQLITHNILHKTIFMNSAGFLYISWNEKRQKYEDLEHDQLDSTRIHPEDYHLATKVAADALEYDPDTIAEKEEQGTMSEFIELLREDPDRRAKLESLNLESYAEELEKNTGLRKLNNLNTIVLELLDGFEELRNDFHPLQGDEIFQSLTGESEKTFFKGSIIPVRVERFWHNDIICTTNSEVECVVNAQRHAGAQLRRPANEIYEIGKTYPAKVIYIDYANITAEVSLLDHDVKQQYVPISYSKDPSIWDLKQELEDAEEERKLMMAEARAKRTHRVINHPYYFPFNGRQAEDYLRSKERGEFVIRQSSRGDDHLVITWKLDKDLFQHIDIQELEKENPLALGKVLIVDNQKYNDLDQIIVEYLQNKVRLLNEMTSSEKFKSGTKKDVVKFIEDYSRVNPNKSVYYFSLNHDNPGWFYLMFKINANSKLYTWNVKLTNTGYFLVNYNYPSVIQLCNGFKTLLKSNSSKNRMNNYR
Experiment: co-IP

B1: Spn1 (natural protein, S. cerevisiae, UniProt Q06505 1-410, looked up)
chain: MSTADQEQPKVVEATPEDGTASSQKSTINAENENTKQNQSMEPQETSKGTSNDTKDPDNGEKNEEAAIDENSNVEAAERKRKHISTDFSDDDLEKEEHNDQSLQPTVENRASKDRDSSATPSSRQELEEKLDRILKKPKVRRTRRDEDDLEQYLDEKILRLKDEMNIAAQLDIDTLNKRIETGDTSLIAMQKVKLLPKVVSVLSKANLADTILDNNLLQSVRIWLEPLPDGSLPSFEIQKSLFAALNDLPVKTEHLKESGLGRVVIFYTKSKRVEAQLARLAEKLIAEWTRPIIGASDNYRDKRIMQLEFDSEKLRKKSVMDSAKNRKKKSKSGEDPTSRGSSVQTLYEQAAARRNRAAAPAQTTTDYKYAPVSNLSAVPTNARAVGVGSTLNNSEMYKRLTSRLNKKHK
fold decrease of co-IP against wild-type Spt6-FLAG: 20 fold
